Source: the Human Domainome abundance scans (Beltran et al. 2025)
± gives the uncertainty stated by the source.

B1: POU domain, class 2, transcription factor 3, residues 186 to 260; numbered along this chain, Q9UKI9 (parent)
chain: SDLEELEKFAKTFKQRRIKLGFTQGDVGLAMGKLYGNDFSQTTISRFEALNLSFKNMCKLKPLLEKWLNDAESSP

Variants of: B1
Test: abundance fitness (aPCA) (normalised: wild type 0, dead -1); higher = more abundant; growth selection in yeast, the domain comes from the species named
Settings: Homo sapiens

| Variant | abundance fitness |
| --- | --- |
| E5D | 0.036 ± 0.036 |
| E5F | -0.102 ± 0.044 |
| E5G | -0.045 ± 0.027 |
| E5H | 0.029 ± 0.049 |
| E5I | -0.022 ± 0.061 |
| E5M | 0.016 ± 0.036 |
| E5N | -0.031 ± 0.061 |
| E5Q | 0.003 ± 0.04 |
| E5R | -0.003 ± 0.026 |
| E5S | 0.031 ± 0.03 |
| E5T | 0.013 ± 0.031 |
| E5W | -0.137 ± 0.033 |
| E5Y | -0.269 ± 0.051 |
| L6F | -0.229 ± 0.32 |
| L6S | -0.16 ± 0.39 |
| K8G | -0.115 ± 0.1 |
| F9G | -0.387 ± 0.28 |
| F9L | -0.514 ± 0.44 |
| F9S | -0.153 ± 0.29 |
| F9V | -0.441 ± 0.2 |
| A10G | -0.064 ± 0.16 |
| T12N | 0.063 ± 0.13 |
| T12Q | 0.01 ± 0.13 |
| T12R | -0.018 ± 0.11 |

| Variant | abundance fitness |
| --- | --- |
| K14A | -0.309 ± 0.32 |
| Q15A | 0.474 ± 0.32 |
| R16G | -0.147 ± 0.11 |
| I18A | -0.056 ± 0.031 |
| I18C | -0.143 ± 0.046 |
| I18D | -0.063 ± 0.048 |
| I18E | 0.064 ± 0.031 |
| I18F | -0.266 ± 0.076 |
| I18H | -0.133 ± 0.072 |
| I18K | -0.028 ± 0.042 |
| I18L | -0.025 ± 0.028 |
| I18M | 0.004 ± 0.034 |
| I18N | -0.146 ± 0.056 |
| I18P | -0.964 ± 0.1 |
| I18Q | 0.086 ± 0.038 |
| I18R | -0.057 ± 0.025 |
| I18S | -0.072 ± 0.029 |
| I18T | -0.041 ± 0.036 |
| I18V | -0.023 ± 0.027 |
| I18W | -0.31 ± 0.038 |
| I18Y | -0.166 ± 0.054 |
| K19A | -0.321 ± 0.47 |
| K19D | 0.131 ± 0.22 |
| K19L | 0.228 ± 0.41 |

| Variant | abundance fitness |
| --- | --- |
| K19S | 0.11 ± 0.41 |
| L20K | -0.591 ± 0.48 |
| G21D | -0.373 ± 0.2 |
| G21Q | -0.493 ± 0.39 |
| G21S | -0.504 ± 0.28 |
| G21V | -0.683 ± 0.44 |
| F22A | 0.146 ± 0.15 |
| F22E | -0.412 ± 0.39 |
| F22L | 0.065 ± 0.17 |
| F22R | -0.274 ± 0.25 |
| F22S | -0.282 ± 0.31 |
| T23A | -0.157 ± 0.47 |
| T23S | 0.026 ± 0.14 |
| Q24A | -0.451 ± 0.44 |
| Q24C | -0.155 ± 0.19 |
| Q24S | -0.071 ± 0.26 |
| Q24W | -0.591 ± 0.48 |
| G25C | 0.105 ± 0.3 |
| G25D | -0.436 ± 0.28 |
| G25V | -0.161 ± 0.27 |
| D26G | -0.125 ± 0.11 |
| D26R | -0.344 ± 0.2 |
| D26V | -0.227 ± 0.49 |
| V27D | -0.727 ± 0.4 |

| Variant | abundance fitness |
| --- | --- |
| G28A | -0.055 ± 0.11 |
| G28C | -0.367 ± 0.22 |
| G28Q | -0.59 ± 0.47 |
| G28R | -0.191 ± 0.17 |
| G28T | 0.087 ± 0.46 |
| L29A | 0.024 ± 0.027 |
| L29C | 0.026 ± 0.036 |
| L29D | -0.045 ± 0.039 |
| L29E | 0.02 ± 0.029 |
| L29F | -0.099 ± 0.045 |
| L29G | -0.042 ± 0.022 |
| L29H | -0.062 ± 0.042 |
| L29I | 0.022 ± 0.042 |
| L29K | 0.042 ± 0.029 |
| L29M | 0.05 ± 0.031 |
| L29P | -0.47 ± 0.039 |
| L29Q | 0.007 ± 0.029 |
| L29R | 0.019 ± 0.022 |
| L29S | -0.003 ± 0.025 |
| L29T | -0.083 ± 0.031 |
| L29V | -0.007 ± 0.024 |
| L29W | -0.121 ± 0.031 |
| L29Y | -0.06 ± 0.041 |
| A30G | -0.288 ± 0.27 |

| Variant | abundance fitness |
| --- | --- |
| M31C | -0.583 ± 0.31 |
| M31R | -0.746 ± 0.37 |
| G32R | 0.29 ± 0.27 |
| K33G | 0.141 ± 0.19 |
| K33R | 0.129 ± 0.42 |
| K33W | -0.372 ± 0.22 |
| Y35D | -0.016 ± 0.15 |
| Y35F | -0.182 ± 0.23 |
| Y35S | 0.01 ± 0.15 |
| G36C | -0.18 ± 0.41 |
| G36S | 0.1 ± 0.1 |
| N37A | 0.02 ± 0.027 |
| N37C | -0.027 ± 0.042 |
| N37D | 0.023 ± 0.039 |
| N37E | 0.003 ± 0.027 |
| N37F | -0.139 ± 0.05 |
| N37G | 0.024 ± 0.021 |
| N37H | 0.04 ± 0.044 |
| N37I | -0.039 ± 0.057 |
| N37M | -0.025 ± 0.031 |
| N37R | 0.027 ± 0.023 |
| N37T | -0.013 ± 0.033 |
| N37V | -0.027 ± 0.024 |
| N37W | -0.07 ± 0.027 |

| Variant | abundance fitness |
| --- | --- |
| N37Y | -0.157 ± 0.047 |
| D38N | 0.037 ± 0.23 |
| Q41A | 0.025 ± 0.027 |
| Q41C | -0.062 ± 0.053 |
| Q41D | -0.066 ± 0.063 |
| Q41E | 0.026 ± 0.027 |
| Q41F | -0.037 ± 0.06 |
| Q41G | 0.009 ± 0.023 |
| Q41H | -0.001 ± 0.089 |
| Q41I | -0.072 ± 0.065 |
| Q41K | 0.051 ± 0.037 |
| Q41L | -0.117 ± 0.026 |
| Q41M | -0.055 ± 0.031 |
| Q41P | -0.03 ± 0.035 |
| Q41R | -0.001 ± 0.022 |
| Q41S | -0.002 ± 0.031 |
| Q41T | -0.04 ± 0.033 |
| Q41V | -0.081 ± 0.026 |
| Q41W | -0.095 ± 0.027 |
| Q41Y | -0.07 ± 0.09 |
| T42I | 0.135 ± 0.25 |
| I44A | -0.784 ± 0.048 |
| I44C | -0.538 ± 0.056 |
| I44D | -1.03 ± 0.13 |

| Variant | abundance fitness |
| --- | --- |
| I44E | -0.794 ± 0.049 |
| I44G | -1 ± 0.045 |
| I44H | -1.02 ± 0.21 |
| I44L | -0.149 ± 0.025 |
| I44M | -0.377 ± 0.035 |
| I44N | -1.1 ± 0.2 |
| I44P | -0.919 ± 0.085 |
| I44Q | -0.985 ± 0.082 |
| I44R | -0.86 ± 0.041 |
| I44V | -0.045 ± 0.024 |
| I44Y | -0.569 ± 0.074 |
| S45A | 0.013 ± 0.025 |
| S45C | 0.022 ± 0.038 |
| S45D | -0.048 ± 0.037 |
| S45F | -0.253 ± 0.054 |
| S45G | -0.036 ± 0.022 |
| S45H | -0.097 ± 0.05 |
| S45I | -0.125 ± 0.05 |
| S45K | 0.021 ± 0.035 |
| S45L | -0.125 ± 0.026 |
| S45M | -0.037 ± 0.035 |
| S45N | 0.004 ± 0.05 |
| S45P | -0.04 ± 0.036 |
